{"source": "patent US20230174595A1", "key": {"[1]": {"molecular_target": "recombinant His-tagged HIV-1 gp120 Q769.h5 (Clade A) (HIV-1 strain Q769.h5)"}, "[2]": {"molecular_target": "recombinant His-tagged HIV-1 gp120 Q769.h5 (Clade A) (HIV-1 strain Q769.h5)", "test": "SPR, His-tagged gp120 on NTA chip (FIG. 7)"}}, "data": [{"substance": "AvFc lectibody (Avaren fused via a linker to the Fc region of human IgG1) (Fc fusion)", "values": [{"measurement": "Kd", "setting": "[1]", "value": 4.2, "unit": "nM"}, {"measurement": "fold increase in affinity compared to AH", "setting": "[2]", "value": 10, "unit": "fold"}]}, {"substance": "actinohivin (AH), wild type (from UniProt Q9KWN0 47-160)", "values": [{"measurement": "Kd", "setting": "[1]", "value": 29.6, "unit": "nM"}]}]}
